Experimental data as given in paper PMC11577023.

Experiments:
Test in all cases: […] (pH 7.4), 0.5 mL/min; […]
[1] = molecular target: rTET-NA derived from B/Phuket/3073/2013 (B/Yamagata/16/88-like lineage) (not stated | influenza B virus B/Phuket/3073/2013 (B/Yamagata/16/88-like lineage))
[2] = molecular target: rTET-NA derived from B/Colorado/06/2017 (B/Victoria/2/87-like lineage) (not stated | influenza B virus B/Colorado/06/2017 (B/Victoria/2/87-like lineage))
[3] = molecular target: rTET-NA derived from A/Michigan/45/2015 N1 (not stated | influenza A virus A/Michigan/45/2015 (H1N1))
[4] = molecular target: rTET-NA derived from A/Singapore/INFIMH-16-0019/2016 N2 (not stated | influenza A virus A/Singapore/INFIMH-16-0019/2016 (H3N2))

Substance: rTET-NA derived from B/Phuket/3073/2013 (B/Yamagata/16/88-like lineage) (enzyme)
- stoichiometry N [1]: 4

Substance: rTET-NA derived from B/Colorado/06/2017 (B/Victoria/2/87-like lineage) (enzyme)
- stoichiometry N [2]: 4

Substance: rTET-NA derived from A/Michigan/45/2015 N1 (enzyme)
- stoichiometry N [3]: 4

Substance: rTET-NA derived from A/Singapore/INFIMH-16-0019/2016 N2 (enzyme)
- stoichiometry N [4]: 4
